The values that follow come from patent publication US20260092093A1 (TJ BIOPHARMA SHANGHAI, published 2026).

Where a chain is given by its changes, count along the chain named.

The labels stand for the following.
T1: hIL-18BP-hFc (human, UniProt O95998 31-194, limits assumed)
T1 sequence (looked up): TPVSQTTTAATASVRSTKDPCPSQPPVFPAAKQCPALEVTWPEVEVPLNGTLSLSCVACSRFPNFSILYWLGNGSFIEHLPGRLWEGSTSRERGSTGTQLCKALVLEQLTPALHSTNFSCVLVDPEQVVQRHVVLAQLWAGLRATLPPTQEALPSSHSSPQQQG

T2: hIL-18 receptor (hIL-18Rα and hIL-18Rβ) (human, UniProt Q13478 19-541; O95256 20-599)
T2 sequence (looked up) 1: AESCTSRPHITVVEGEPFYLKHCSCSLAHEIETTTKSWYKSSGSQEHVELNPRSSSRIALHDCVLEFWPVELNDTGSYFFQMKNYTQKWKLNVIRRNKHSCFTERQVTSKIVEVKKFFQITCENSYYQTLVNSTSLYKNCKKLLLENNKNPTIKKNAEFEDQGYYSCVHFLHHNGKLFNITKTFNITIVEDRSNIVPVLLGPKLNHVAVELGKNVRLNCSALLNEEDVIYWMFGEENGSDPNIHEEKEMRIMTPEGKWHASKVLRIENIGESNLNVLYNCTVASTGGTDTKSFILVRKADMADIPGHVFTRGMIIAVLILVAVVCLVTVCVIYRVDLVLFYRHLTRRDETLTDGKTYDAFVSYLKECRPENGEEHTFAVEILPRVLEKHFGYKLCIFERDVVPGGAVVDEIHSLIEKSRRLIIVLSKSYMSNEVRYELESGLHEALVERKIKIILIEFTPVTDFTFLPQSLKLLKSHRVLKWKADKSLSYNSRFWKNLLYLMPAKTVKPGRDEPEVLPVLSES
T2 sequence (looked up) 2: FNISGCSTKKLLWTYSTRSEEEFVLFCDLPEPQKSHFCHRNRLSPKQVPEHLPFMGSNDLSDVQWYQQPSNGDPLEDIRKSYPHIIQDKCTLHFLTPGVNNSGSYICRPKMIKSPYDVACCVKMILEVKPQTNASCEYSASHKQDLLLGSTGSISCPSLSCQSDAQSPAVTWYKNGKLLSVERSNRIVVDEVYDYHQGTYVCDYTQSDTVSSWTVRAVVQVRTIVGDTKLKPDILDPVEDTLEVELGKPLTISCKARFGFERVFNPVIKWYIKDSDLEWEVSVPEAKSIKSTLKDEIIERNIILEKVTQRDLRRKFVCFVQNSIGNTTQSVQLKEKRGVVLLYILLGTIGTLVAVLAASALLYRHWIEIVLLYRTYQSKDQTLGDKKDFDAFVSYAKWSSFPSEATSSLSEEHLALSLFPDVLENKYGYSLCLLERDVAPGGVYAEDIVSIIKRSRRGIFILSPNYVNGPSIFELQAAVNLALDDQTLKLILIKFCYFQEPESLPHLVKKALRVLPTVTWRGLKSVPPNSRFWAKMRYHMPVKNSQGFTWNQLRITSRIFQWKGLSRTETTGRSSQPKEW

B1: IL-18 variant polypeptide M13 (ligand)
chain: YFPKLKSKLSVIRNLNDQVLFIDQGNRPLFEDMTDSDCRDNAPRTIFIISMYKQSIWRGMAVTISVKCEKISTLSCENKIISFKEMNPPDNIKDTKSDIIFFQRSVPGHDNKMQFESSSYEGYFLACEKERDLFKLILKKEDELGDRSIMFTVQNED
B2: IL-18 variant polypeptide M15 (ligand)
chain: B1 chain with K6R, Q54S, I56Y, W57T, N91G
B3: IL-18 variant polypeptide M24 (ligand)
chain: B1 chain with K6R, Q54Y, I56T, W57S
B4: IL-18 variant polypeptide M17 (ligand)
chain: B1 chain with K6R, Q54L, I56T, W57A, N91G
B5: IL-18 variant polypeptide M21 (ligand)
chain: B1 chain with K6R, Q54S, I56S, W57T, N91G, R104S

For one assay, the target named is T1, hIL-18BP-hFc. The experiment in a line: cell-based or functional assay.
Consider B1, for which the “EC50 (nM) in the Presence of 1 µg/mL hIL-18BP-hFc, PBMC assay (hIFNγ release)” value (“EC50 (nM) in the Presence … (hIFNγ release)” below) turned out to be 0.025 nM and the “EC50 Fold Change (+BP/-BP), PBMC assay (hIFNγ release)” value (“EC50 Fold Change … (hIFNγ release)” for short) came to 1.25 fold.
Turning to B2, the “EC50 (nM) in the Presence … (hIFNγ release)” value came out at 0.036 nM and the “EC50 Fold Change … (hIFNγ release)” value was found to be 0.73 fold.
On to B3, for which the “EC50 (nM) in the Presence … (hIFNγ release)” value was 0.08 nM and the “EC50 Fold Change … (hIFNγ release)” value worked out at 1.48 fold.
In the case of B4, the “EC50 (nM) in the Presence … (hIFNγ release)” value was 0.13 nM and the “EC50 Fold Change … (hIFNγ release)” value is 1 fold.
As for B5, the “EC50 (nM) in the Presence … (hIFNγ release)” value came out at 0.049 nM and the “EC50 Fold Change … (hIFNγ release)” value was 1.09 fold.

The next assay concerns the target T2, hIL-18 receptor (hIL-18Rα and hIL-18Rβ). The experiment in a line: cell-based or functional assay.
For the molecule B1, the “EC50 (nM), PBMC assay (hIFNγ release)” value is 0.02 nM.
Turning to B2, the “EC50 (nM), PBMC assay (hIFNγ release)” value came out at 0.049 nM.
On to B3, for which the “EC50 (nM), PBMC assay (hIFNγ release)” value worked out at 0.054 nM.
Consider B4, for which the “EC50 (nM), PBMC assay (hIFNγ release)” value was 0.13 nM.
For B5, the “EC50 (nM), PBMC assay (hIFNγ release)” value worked out at 0.045 nM.

A further assay deals with T1, hIL-18BP-hFc. The experiment in a line: cell-based or functional assay. This is another data set of the same source.
On to B1, for which the “EC50 (nM) in the Presence of 1 µg/mL hIL-18BP-hFc, hIL-18 reporter assay” value stood at 0.026 nM and the “EC50 Fold Change (+BP/-BP), hIL-18 reporter assay” value was 0.74 fold.
In the case of B2, the “EC50 (nM) in the Presence of 1 µg/mL hIL-18BP-hFc, hIL-18 reporter assay” value amounted to 0.12 nM and the “EC50 Fold Change (+BP/-BP), hIL-18 reporter assay” value amounted to 0.92 fold.
Regarding B3, the “EC50 (nM) in the Presence of 1 µg/mL hIL-18BP-hFc, hIL-18 reporter assay” value was determined as 1.99 nM and the “EC50 Fold Change (+BP/-BP), hIL-18 reporter assay” value was found to be 2.01 fold.
As for B4, the “EC50 (nM) in the Presence of 1 µg/mL hIL-18BP-hFc, hIL-18 reporter assay” value turned out to be 0.32 nM and the “EC50 Fold Change (+BP/-BP), hIL-18 reporter assay” value was 0.78 fold.
For the molecule B5, the “EC50 (nM) in the Presence of 1 µg/mL hIL-18BP-hFc, hIL-18 reporter assay” value turned out to be 2.1 nM and the “EC50 Fold Change (+BP/-BP), hIL-18 reporter assay” value worked out at 1.11 fold.

The next assay addresses T2, hIL-18 receptor (hIL-18Rα and hIL-18Rβ). Kind of assay: cell-based or functional assay. The source holds these as a separate data set.
For the molecule B1, the “EC50 (nM), hIL-18 reporter assay” value is 0.035 nM.
Regarding B2, the “EC50 (nM), hIL-18 reporter assay” value was 0.13 nM.
B3: the “EC50 (nM), hIL-18 reporter assay” value came out at 0.99 nM.
In the case of B4, the “EC50 (nM), hIL-18 reporter assay” value was found to be 0.41 nM.
On the same count and under the same terms, to B5 belongs 1.9 nM.
